Results on seven molecules are retold here after US20230134571A1 (INTERNATIONAL AIDS VACCINE INITIATIVE, published 2023).

Holding throughout (assay): cell-based or functional assay
Test [1] addresses HIV Env of isolate C4118.c09 (clade AE) (HIV).
Test [2] has as its target HIV Env of isolate 6540.v4.c1 (clade AC) (HIV).
The target of test [3] is HIV Env of isolate Du156.12 (clade C) (HIV).
Test [4] deals with HIV Env of isolate Q842.d12 (clade A) (HIV).
Test [5] has as its target HIV Env of isolate P0402_C2_11 (clade G) (HIV).
The target of test [6] is HIV Env of isolate 89-F1_2_25 (clade CD) (HIV).
Test [7] has as its target HIV Env of isolate CNE8 (clade AE) (HIV).
The target of test [8] is HIV Env of isolate 1006_11_C3_1601 (clade B) (HIV).
Test [9] deals with HIV Env of isolate ZM109F.PB4 (clade C) (HIV).
For test [10], the target named is HIV Env, isolate CAP210.2.00.E8 (HIV).
Test [11] deals with HIV Env, isolate SC05_8C11_2344 (HIV).
The target of test [12] is HIV Env, isolate Du172.17 (HIV).
Test [13] deals with HIV Env, isolate RHPA4259.7 (HIV).
The target of another test is HIV Env, isolate CNE30 (HIV).
For test [14], the target named is HIV Env, isolate Du156.12 (HIV).
For test [15], the target named is HIV Env, isolate 62357_14_D3_4589 (HIV).
The target in test [16] is HIV Env, isolate ZM53M.PB12 (HIV).
Test [17] deals with HIV Env, isolate 3016.v5.c45 (HIV).
The target in test [18] is HIV Env, isolate 1006_11_C3_1601 (HIV).

B1: ePGDM13 (antibody, V domains shown)
VH: QAQLVQSGPEVRKPGTSVKVSCKNPGNTLTTYDLHWVRQVPGQGLQWMGWISHEGDKKVIVERFKAKVTIDWDRSTNTAYLQLSGLTSEDTAVYYCAKGSKHRLRDYALYDEDGALNWAVDVDYLANLEFWGQGTAVTVSS
VL: DIVLTQSPLSLSVTPGESASISCKSSHSLQHGDRNNYLAWYVQKPGRSPQLLLDLASERASGVPDRFSGSGSEKDFTLKISRVETEDVGTYYCMQGRESPWTFGQGTKVDIK
As to B1, the “IC50 (µg/ml) with constrains” value is 0.001 µg/mL in test [1]; 0.015 µg/mL in [2]; 0.006 µg/mL in test [3]; greater than 100 µg/mL in test [4]; 0.001 µg/mL in [5]; 0.001 µg/mL in test [6]. For the same molecule, the entries for the “IC50 (µg/ml) with constrains” value in [7], in [8] and in test [9] were 0.005 µg/mL, 0.826 µg/mL and 0.049 µg/mL, respectively. Moreover, the “IC80 (µg/ml) with constrains” value was 0.005 µg/mL in test [1], 0.06 µg/mL in test [2], greater than 100 µg/mL in test [4] and 0.022 µg/mL in test [7].

B2: ePGDM5 (antibody, V domains shown)
VH: QAQLVQSGPEVRKPGTSVKVSCKNPGNTLTTYDLHWVRQVPGQGLQWMGWISHEGDKKVIVERFKAKVTIDWDRSTNTAYLQLSGLTSEDTAVYYCAKGSKHRLRDYALYDEDGALNWAVDVDYLANLEFWGQGTAVTVSS
VL: DFVLTQSPLSLSVTPGESASISCKSDHSLQHGDRNNYLAWYVQKPGRSPQLLIDLASERASGVPDRFSGSGSRKDFTLKIDRVEAEDVGTYYCMQGRESPWTFGQGTKVDIK
B2: the “IC80 (µg/ml) with constrains” value is 0.226 µg/mL in [10]; 14.5 µg/mL in test [11]; 5.98 µg/mL in test [12]; 1.86 µg/mL in test [13]; greater than 100 µg/mL with HIV Env, isolate CNE30; 0.026 µg/mL in [14]. For the same molecule, the “IC80 (µg/ml) with constrains” value in test [15] was 39.9 µg/mL; in [16] it was 0.022 µg/mL; in test [17] it was greater than 100 µg/mL; in [18], 1.89 µg/mL.

B3: PGDM1400 (antibody, V domains shown)
VH: QVHLTQSGPEVRKPGTSVKVSCKAPGNTLKTYDLHWVRSVPGQGLQWMGWISHEGDKKVIVERFKAKVTIDWDRSTNTAYLQLSGLTSGDTAVYYCAKGSKHRLRDYALYDDDGALNWAVDVDYLSNLEFWGQGTAVTVSS
VL: DFVLTQSPHSLSVTPGESASISCKSSHSLIHGDRNNYLAWYVQKPGRSPQLLIYLASSRASGVPDRFSGSGSDKDFTLKISRVETEDVGTYYCMQGRESPWTFGQGTKVDIK
For the molecule B3, the “IC50 (µg/ml) with constrains” value in [1] is 0.002 µg/mL; in test [2], 0.007 µg/mL; in test [3], 0.006 µg/mL; in test [4] it was greater than 100 µg/mL; in [5], 0.007 µg/mL; in [6], 0.003 µg/mL. The results for the “IC50 (µg/ml) with constrains” value in [7], in [8] and in [9] were 0.001 µg/mL, 1.86 µg/mL and 0.098 µg/mL, respectively. Further, the “IC80 (µg/ml) with constrains” value in test [1] is 0.006 µg/mL; in [2], 0.026 µg/mL; in [4] it was greater than 100 µg/mL; in [7], 0.003 µg/mL.

B4: ePGDM9 (antibody, V domains shown)
VH: QAQLVQSGPEVRKPGTSVKVSCKNPGNTLTTYDLHWVRQVPGQGLQWMGWISHEGDKKVIVERFKAKVTIDWDRSTNTAYLQLSGLTSEDTAVYYCAKGSKHRLRDYALYDEDGALNWAVDVDYLANLEFWGQGTAVTVSS
VL: DIVLTQSPLSLSVTPGESASISCKSSQSLIHGDRNNYLAWYVQKPGRSPQLLIDLASERASGVPDRFSGSGSRKDFTLKISRVETEDVGTYYCMQGRESPWTFGQGTKVDIK
B4: the “IC50 (µg/ml) with constrains” value in test [1] was 0.001 µg/mL; in test [2] it was 0.008 µg/mL; in [3] it was 0.004 µg/mL; in test [4], greater than 100 µg/mL; in test [5], 0.001 µg/mL; in test [6] it was 0.001 µg/mL. Besides, the “IC50 (µg/ml) with constrains” value worked out at 0.001 µg/mL in [7], 0.588 µg/mL in test [8] and 0.027 µg/mL in [9]. Besides, the “IC80 (µg/ml) with constrains” value was 0.005 µg/mL in test [1], 0.031 µg/mL in test [2], greater than 100 µg/mL in [4] and 0.002 µg/mL in [7].

B5: ePGDM5 (antibody, V domains shown)
VH: QAQLVQSGPEVRKPGTSVKVSCKNPGNTLTTYDLHWVRQVPGQGLQWMGWISHEGDKKVIVERFKAKVTIDWDRSTNTAYLQLSGLTSEDTAVYYCAKGSKHRLRDYALYDEDGALNWAVDVDYLANLEFWGQGTAVTVSS
VL: DFVLTQSPLSLSVTPGESASISCKSDHSLQHGDRNNYLAWYVQKPGRSPQLLIDLASERASGVPDRFSGSGSRKDFTLKIDRVEAEDVGTYYCMQGRESPWTFGQGTKVDIK
Consider B5, for which the “IC80 (µg/ml) with constrains” value in test [1] is 0.002 µg/mL; in test [2], 0.05 µg/mL; in test [4], greater than 100 µg/mL; in test [7], 0.003 µg/mL. Also, the “IC50 (µg/ml) with constrains” value was 0.012 µg/mL in [2]; 0.006 µg/mL in test [3]; greater than 100 µg/mL in [4]; 0.004 µg/mL in test [5]; 0.001 µg/mL in [6]; 0.001 µg/mL in test [7]. In addition, the results for the “IC50 (µg/ml) with constrains” value in test [8] and in test [9] were 0.473 µg/mL and 0.03 µg/mL, respectively.

B6: ePGDM13 (antibody, V domains shown)
VH: QAQLVQSGPEVRKPGTSVKVSCKNPGNTLTTYDLHWVRQVPGQGLQWMGWISHEGDKKVIVERFKAKVTIDWDRSTNTAYLQLSGLTSEDTAVYYCAKGSKHRLRDYALYDEDGALNWAVDVDYLANLEFWGQGTAVTVSS
VL: DIVLTQSPLSLSVTPGESASISCKSSHSLQHGDRNNYLAWYVQKPGRSPQLLLDLASERASGVPDRFSGSGSEKDFTLKISRVETEDVGTYYCMQGRESPWTFGQGTKVDIK
Consider B6, for which the “IC80 (µg/ml) with constrains” value in test [10] is 0.538 µg/mL; in test [11] it was 9.44 µg/mL; in test [12], 6 µg/mL; in test [13] it was 1.43 µg/mL; in the test with HIV Env, isolate CNE30, greater than 100 µg/mL; in test [14] it was 0.026 µg/mL. For the same molecule, the “IC80 (µg/ml) with constrains” value is 69.5 µg/mL in test [15], 0.022 µg/mL in [16], greater than 100 µg/mL in test [17] and 3.3 µg/mL in test [18].

B7: PGDM1400 (antibody, V domains shown)
VH: QVHLTQSGPEVRKPGTSVKVSCKAPGNTLKTYDLHWVRSVPGQGLQWMGWISHEGDKKVIVERFKAKVTIDWDRSTNTAYLQLSGLTSGDTAVYYCAKGSKHRLRDYALYDDDGALNWAVDVDYLSNLEFWGQGTAVTVSS
VL: DFVLTQSPHSLSVTPGESASISCKSSHSLIHGDRNNYLAWYVQKPGRSPQLLIYLASSRASGVPDRFSGSGSDKDFTLKISRVETEDVGTYYCMQGRESPWTFGQGTKVDIK
On to B7, for which the “IC80 (µg/ml) with constrains” value in test [10] is 1.32 µg/mL; in test [11], 17.8 µg/mL; in [12], 21.7 µg/mL; in [13], 1.96 µg/mL; with HIV Env, isolate CNE30, greater than 100 µg/mL; in test [14], 0.025 µg/mL. Also, the “IC80 (µg/ml) with constrains” value in test [15] is greater than 100 µg/mL; in test [16] it was 0.034 µg/mL; in test [17], greater than 100 µg/mL; in [18], 7.43 µg/mL.
